Among the data in patent publication US20240409599A1 (Genentech, published 2024) are Kd, koff and kon values, retold here.

Common to all, as to test: SPR, Biacore 8K, 37 C, biotinylated target on SA chip, single-cycle kinetics
Assay [1] deals with T1, Human IL-18Rα extracellular domain (human, UniProt Q13478 22-329, biotinylated (site not stated)).
T1 construct: also called IL-18 receptor
T1 sequence: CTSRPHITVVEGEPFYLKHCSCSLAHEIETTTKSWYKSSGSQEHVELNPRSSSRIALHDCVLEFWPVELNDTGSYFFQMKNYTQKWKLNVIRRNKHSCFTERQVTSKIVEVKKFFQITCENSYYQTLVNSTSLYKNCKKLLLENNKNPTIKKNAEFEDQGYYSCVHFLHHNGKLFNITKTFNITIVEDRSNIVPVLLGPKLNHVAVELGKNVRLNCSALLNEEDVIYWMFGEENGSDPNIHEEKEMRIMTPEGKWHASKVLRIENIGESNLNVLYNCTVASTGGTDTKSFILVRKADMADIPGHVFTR
On the procedure: (§1) SPR experiments were performed using a Biacore 8K (Cytiva) at a temperature of 37° C. Biotinylated human or mouse IL-18Rα and IL-18BP were immobilized onto Biacore streptavidin sensor chip (Series S Sensor Chip SA, Cytiva) to yield an Rmax ≤50 RU. Measurements were made with five, three-fold dilutions into HBS-P+ buffer (10 mM HEPES pH 7.4, 150 mM NaCl, 0.005% surfactant P20). Interactions were evaluated using the single-cycle kinetics method and analyzed with the Biacore 8K evaluation software and fit to a 1:1 binding model.
(§2) A subset of variants were selected for analyses of binding kinetics to the L-18 receptor, IL-IM, and the decoy receptor, L-18BP, by surface plasmon resonance (SPR) (Table 8). With two exceptions, all kinetics constants are within an order of magnitude of wild-type IL-18.

The target in assay [2] is T2, Human IL-18BP (isoform A) (human, UniProt O95998 31-194, biotinylated (site not stated)).
T2 construct: also called decoy receptor
T2 sequence: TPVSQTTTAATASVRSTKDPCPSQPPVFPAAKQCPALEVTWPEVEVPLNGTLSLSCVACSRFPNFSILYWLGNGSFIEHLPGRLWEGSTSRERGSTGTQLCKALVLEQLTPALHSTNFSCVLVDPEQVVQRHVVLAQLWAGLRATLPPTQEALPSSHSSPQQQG
On the procedure:
as §1, §2

Assay [3] deals with T3, Mouse IL-18Rα extracellular domain (mouse, UniProt Q61098 20-326, biotinylated (site not stated)).
T3 sequence: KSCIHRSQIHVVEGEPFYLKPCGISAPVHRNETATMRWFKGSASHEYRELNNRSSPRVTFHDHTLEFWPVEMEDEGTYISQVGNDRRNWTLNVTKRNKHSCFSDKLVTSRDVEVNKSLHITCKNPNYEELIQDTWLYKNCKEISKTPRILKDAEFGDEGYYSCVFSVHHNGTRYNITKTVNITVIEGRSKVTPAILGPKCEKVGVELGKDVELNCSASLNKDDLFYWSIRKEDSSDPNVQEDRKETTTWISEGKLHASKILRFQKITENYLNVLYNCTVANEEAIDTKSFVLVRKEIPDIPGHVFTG
On the procedure: as §1, §2

The target of assay [4] is T4, Mouse IL-18BP (isoform D) (mouse, UniProt Q9Z0M9 29-193, biotinylated (site not stated)).
T4 sequence: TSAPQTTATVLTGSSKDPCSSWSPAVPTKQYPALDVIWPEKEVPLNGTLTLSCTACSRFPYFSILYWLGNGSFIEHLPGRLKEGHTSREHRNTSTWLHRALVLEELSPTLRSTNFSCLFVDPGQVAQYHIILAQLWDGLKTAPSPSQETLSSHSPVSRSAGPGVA
On the procedure: as §1, §2

B1: Human IL-18 A162C/I185C (ligand)
chain: YFGKLESKLSVIRNLNDQVLFIDQGNRPLFEDMTDSDSRDNAPRTIFIISMYKDSQPRGMAVTISVKSEKISTLSSENKIISFKEMNPPDNIKDTKSDIIFFQRSVPGHDNKMQFESSSYEGYFLCSEKERDLFKLILKKEDELGDRSCMFTVQNED
notes: Made in mammalian cells
Turning to B1, in assay [1], the dissociation constant (Kd) worked out at 68.1 nM, the koff was 0.212 s⁻¹ and the kon worked out at 3.11e+06 M⁻¹ s⁻¹. In assay [2], this molecule gave a Kd of 0.0065 nM, a koff of 1.89e-05 s⁻¹ and a kon of 2.91e+06 M⁻¹ s⁻¹.

B2: Human IL-18 Y37C/S91C (ligand)
chain: CFGKLESKLSVIRNLNDQVLFIDQGNRPLFEDMTDSDSRDNAPRTIFIISMYKDCQPRGMAVTISVKSEKISTLSSENKIISFKEMNPPDNIKDTKSDIIFFQRSVPGHDNKMQFESSSYEGYFLASEKERDLFKLILKKEDELGDRSIMFTVQNED
notes: Made in mammalian cells
Regarding B2, in assay [2], the Kd turned out to be 0.07 nM, the koff was found to be 0.00018 s⁻¹ and the on-rate constant (kon) was determined as 2.6e+06 M⁻¹ s⁻¹.

B3: Human IL-18 F57C/T81C (ligand)
chain: YFGKLESKLSVIRNLNDQVLCIDQGNRPLFEDMTDSDSRDNAPRCIFIISMYKDSQPRGMAVTISVKSEKISTLSSENKIISFKEMNPPDNIKDTKSDIIFFQRSVPGHDNKMQFESSSYEGYFLASEKERDLFKLILKKEDELGDRSIMFTVQNED
notes: Made in mammalian cells
In assay [2], B3 returned a Kd of 0.007 nM, a koff of 2.2e-05 s⁻¹ and a kon of 3.4e+06 M⁻¹ s⁻¹.

B4: Human IL-18 T99C/P124C (ligand)
chain: YFGKLESKLSVIRNLNDQVLFIDQGNRPLFEDMTDSDSRDNAPRTIFIISMYKDSQPRGMAVCISVKSEKISTLSSENKIISFKEMNCPDNIKDTKSDIIFFQRSVPGHDNKMQFESSSYEGYFLASEKERDLFKLILKKEDELGDRSIMFTVQNED
notes: Made in mammalian cells
In the case of B4, in assay [1], the Kd turned out to be 64.4 nM, the koff was determined as 0.032 s⁻¹ and the kon turned out to be 500000 M⁻¹ s⁻¹. In assay [2], this molecule yielded a Kd of 0.008 nM, a koff of 2.5e-05 s⁻¹ and a kon of 3e+06 M⁻¹ s⁻¹.

B5: Human IL-18 L45C/E192C (ligand)
chain: YFGKLESKCSVIRNLNDQVLFIDQGNRPLFEDMTDSDSRDNAPRTIFIISMYKDSQPRGMAVTISVKSEKISTLSSENKIISFKEMNPPDNIKDTKSDIIFFQRSVPGHDNKMQFESSSYEGYFLASEKERDLFKLILKKEDELGDRSIMFTVQNCD
notes: Made in mammalian cells
In the case of B5, in assay [1], the affinity, expressed as Kd, was 58.7 nM; the koff was found to be 0.028 s⁻¹; the kon was 470000 M⁻¹ s⁻¹. In assay [2], this molecule registered a Kd of 0.015 nM, a koff of 3.1e-05 s⁻¹ and a kon of 2.1e+06 M⁻¹ s⁻¹.

B6: Human IL-18 I107C/N123C (ligand)
chain: YFGKLESKLSVIRNLNDQVLFIDQGNRPLFEDMTDSDSRDNAPRTIFIISMYKDSQPRGMAVTISVKSEKCSTLSSENKIISFKEMCPPDNIKDTKSDIIFFQRSVPGHDNKMQFESSSYEGYFLASEKERDLFKLILKKEDELGDRSIMFTVQNED
notes: Made in mammalian cells
In assay [1], B6 displayed a Kd of 14.7 nM, an off-rate constant (koff) of 0.031 s⁻¹ and a kon of 2.1e+06 M⁻¹ s⁻¹. In addition, in assay [2], the Kd was found to be 0.007 nM, the dissociation rate constant (koff) worked out at 2.1e-05 s⁻¹ and the kon worked out at 2.9e+06 M⁻¹ s⁻¹.

B7: Human IL-18 S46C/I85C (ligand)
chain: YFGKLESKLCVIRNLNDQVLFIDQGNRPLFEDMTDSDSRDNAPRTIFICSMYKDSQPRGMAVTISVKSEKISTLSSENKIISFKEMNPPDNIKDTKSDIIFFQRSVPGHDNKMQFESSSYEGYFLASEKERDLFKLILKKEDELGDRSIMFTVQNED
notes: Made in mammalian cells
Consider B7, for which, in assay [2], the affinity, expressed as Kd, was 0.035 nM; the koff was determined as 0.00012 s⁻¹; the kon amounted to 3.3e+06 M⁻¹ s⁻¹.

B8: Human IL-18 S46C/V189C (ligand)
chain: YFGKLESKLCVIRNLNDQVLFIDQGNRPLFEDMTDSDSRDNAPRTIFIISMYKDSQPRGMAVTISVKSEKISTLSSENKIISFKEMNPPDNIKDTKSDIIFFQRSVPGHDNKMQFESSSYEGYFLASEKERDLFKLILKKEDELGDRSIMFTCQNED
notes: Made in mammalian cells
Take B8: in assay [1], the Kd came to 147 nM, the koff came out at 0.054 s⁻¹ and the kon is 360000 M⁻¹ s⁻¹. Further, in assay [2], binding was characterised by a dissociation constant (Kd) of 0.018 nM, the koff amounted to 4.3e-05 s⁻¹ and the on-rate (kon) worked out at 2.3e+06 M⁻¹ s⁻¹.

B9: Human IL-18 L174C (ligand)
chain: YFGKLESKLSVIRNLNDQVLFIDQGNRPLFEDMTDSDSRDNAPRTIFIISMYKDSQPRGMAVTISVKSEKISTLSCENKIISFKEMNPPDNIKDTKSDIIFFQRSVPGHDNKMQFESSSYEGYFLASEKERDLFKLICKKEDELGDRSIMFTVQNED
notes: Made in mammalian cells
In assay [1], B9 registered a Kd of 32.8 nM, an off-rate (koff) of 0.011 s⁻¹ and a kon of 350000 M⁻¹ s⁻¹. In assay [2], this molecule returned a Kd of 0.007 nM, a koff of 2.1e-05 s⁻¹ and an on-rate (kon) of 2.93e+06 M⁻¹ s⁻¹.

B10: Human IL-18 hCS (ligand)
chain: YFGKLESKLSVIRNLNDQVLFIDQGNRPLFEDMTDSDSRDNAPRTIFIISMYKDSQPRGMAVTISVKSEKISTLSSENKIISFKEMNPPDNIKDTKSDIIFFQRSVPGHDNKMQFESSSYEGYFLASEKERDLFKLILKKEDELGDRSIMFTVQNED
Consider B10, for which, in assay [1], the affinity, expressed as Kd, was 1.7 nM; the koff came to 5.6e-05 s⁻¹; the on-rate constant (kon) came out at 32000 M⁻¹ s⁻¹. In assay [2], this molecule registered a Kd of 0.035 nM, a koff of 4.9e-05 s⁻¹ and a kon of 1.4e+06 M⁻¹ s⁻¹.

B11: Human IL-18 S43C/S86C (ligand)
chain: YFGKLECKLSVIRNLNDQVLFIDQGNRPLFEDMTDSDSRDNAPRTIFIICMYKDSQPRGMAVTISVKSEKISTLSSENKIISFKEMNPPDNIKDTKSDIIFFQRSVPGHDNKMQFESSSYEGYFLASEKERDLFKLILKKEDELGDRSIMFTVQNED
notes: Made in mammalian cells
In assay [1], B11 registered a Kd of 54.5 nM, a koff of 0.0241 s⁻¹ and a kon of 440000 M⁻¹ s⁻¹. Besides, in assay [2], binding was characterised by a dissociation constant (Kd) of 0.009 nM, the koff came to 3.2e-05 s⁻¹ and the kon is 3.4e+06 M⁻¹ s⁻¹.

B12: Human IL-18 S101C/T109C (ligand)
chain: YFGKLESKLSVIRNLNDQVLFIDQGNRPLFEDMTDSDSRDNAPRTIFIISMYKDSQPRGMAVTICVKSEKISCLSSENKIISFKEMNPPDNIKDTKSDIIFFQRSVPGHDNKMQFESSSYEGYFLASEKERDLFKLILKKEDELGDRSIMFTVQNED
notes: Made in mammalian cells
Turning to B12, in assay [1], the Kd was 147 nM, the koff is 0.042 s⁻¹ and the kon was determined as 280000 M⁻¹ s⁻¹. In assay [2], the Kd came out at 0.011 nM, the koff stood at 2.4e-05 s⁻¹ and the kon came out at 2.3e+06 M⁻¹ s⁻¹.

B13: Mouse wild-type mature IL-18 (ligand)
chain: NFGRLHCTTAVIRNINDQVLFVDKRQPVFEDMTDIDQSASEPQTRLIIYMYKDSEVRGLAVTLSVKDSKMSTLSCKNKIISFEEMDPPENIDDIQSDLIFFQKRVPGHNKMEFESSLYEGHFLACQKEDDAFKLILKKKDENGDKSVMFTLTNLHQS
notes: also called Mouse WT; mouse mature IL-18
In assay [3], B13 displayed a Kd of 1.27 nM, a koff of 0.0097 s⁻¹ and a kon of 7.6e+06 M⁻¹ s⁻¹. This molecule also returned a kon in assay [4] of 650000 M⁻¹ s⁻¹.

B14: Mouse IL-18 A159C/V182C (ligand)
chain: NFGRLHSTTAVIRNINDQVLFVDKRQPVFEDMTDIDQSASEPQTRLIIYMYKDSEVRGLAVTLSVKDSKMSTLSSKNKIISFEEMDPPENIDDIQSDLIFFQKRVPGHNKMEFESSLYEGHFLCSQKEDDAFKLILKKKDENGDKSCMFTLTNLHQS
In assay [3], B14 gave a Kd of 1.11 nM, a koff of 0.0077 s⁻¹ and a kon of 7e+06 M⁻¹ s⁻¹. In assay [4], this molecule yielded a Kd of 0.014 nM, a koff of 3.2e-05 s⁻¹ and an on-rate (kon) of 2.23e+06 M⁻¹ s⁻¹.
